Measurements as given in the supplement of paper PMC12764529.
± gives the half width of the 95% confidence interval.

What was measured:
[1] = folding stability dG unfold from chymotrypsin proteolysis; higher = more stable
Outline: (§1)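 Only designs with AlphaFold2 dimer inter-PAE above 15 were retained; each was a mini-protein under 80 residues with no cysteine, in a PA-tagged cDNA display construct. After digestion with trypsin and chymotrypsin and sequencing, K50 was inferred by Bayesian fitting of counts, and unfolding free energy was derived per protease or combined against a sequence-predicted unfolded-state K50 and a shared folded-state K50.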

[2] = folding stability dG unfold (combined trypsin and chymotrypsin); higher = more stable
Outline: as §1

[3] = folding stability dG unfold from trypsin proteolysis; higher = more stable
Outline: as §1

Sequence: SAGGSAGGSAGVKVLKNPGDSLVTVVTETTVTKTTTDPEGNTTTTPVKVTTTTLLEVPLTSAGGSAGGSAGG [r17_103_JUSTAS]
- folding stability dG unfold [1]: 0.215 ± 0.056 kcal/mol
- folding stability dG unfold [2]: 0.279 ± 0.071 kcal/mol
- folding stability dG unfold [3]: 0.205 ± 0.033 kcal/mol

Sequence: SAGGSAGGSAGVPVVVRTVTGPEGGYVVVEFPNLKKVVLLPFTDGKPRPVVFDTDEVLKLVSAGGSAGGSAG [r3_426_TrMRF]
- folding stability dG unfold [1]: 0.722 ± 0.083 kcal/mol
- folding stability dG unfold [2]: 0.825 ± 0.093 kcal/mol
- folding stability dG unfold [3]: 1.04 ± 0.04 kcal/mol

Sequence: SAGGSAGGSAGVRDPDNGEPMPPGDWVIRHRDNEKPHHFLIPPNNAEEFAEDNGIEIHKVSAGGSAGGSAGG [r17_109_TrROS]
- folding stability dG unfold [1]: 1.24 ± 0.14 kcal/mol
- folding stability dG unfold [2]: 1.32 ± 0.35 kcal/mol
- folding stability dG unfold [3]: 1.42 ± 0.23 kcal/mol

Sequence: SAGGSAGGSAGVVLKEPKGGVPKTITEDPNHPGLYTTGSPDGTISTRPLEIKPEEEPVLLSAGGSAGGSAGG [r17_85_JUSTAS]
- folding stability dG unfold [1]: -0.542 ± 0.4 kcal/mol
- folding stability dG unfold [2]: -0.739 ± 0.55 kcal/mol
- folding stability dG unfold [3]: -1.01 ± 0.49 kcal/mol

Sequence: SAGGSAGGSAGVVVKKPGTDVVYEITEEPGSYKVTITDPKTGTTKEFTVSPEVSIESLLLSAGGSAGGSAGG [r11_772_JUSTAS]
- folding stability dG unfold [1]: 0.757 ± 0.13 kcal/mol
- folding stability dG unfold [2]: 1.15 ± 0.14 kcal/mol
- folding stability dG unfold [3]: 1.22 ± 0.092 kcal/mol

Sequence: SAGGSAGGSAGWGWISVSITFEMEHYDEDGKPKHEHPMPMTIQIPVVRVDPKNGKLEPMPSAGGSAGGSAGG [r17_413_TrROS]
- folding stability dG unfold [1]: 2.58 ± 0.065 kcal/mol
- folding stability dG unfold [2]: 2.24 ± 0.2 kcal/mol
- folding stability dG unfold [3]: 1.83 ± 0.095 kcal/mol

Sequence: SAGGSAGGSAGYTVSVSVETETLKYLDPETGELVEEETLVRVTITITPPPPAPPNLPENLSAGGSAGGSAGG [r17_493_TrROS_Hall]
- folding stability dG unfold [1]: 2.76 ± 0.051 kcal/mol
- folding stability dG unfold [2]: 2.65 ± 0.23 kcal/mol
- folding stability dG unfold [3]: 2.37 ± 0.23 kcal/mol

Sequence: SAGGSAGGSAIADEFAEKNPNFQVEVERHTFEMTQYDPDGGWRQHRMFMISITIVPPGDPLSAGGSAGGSAG [r3_358_TrROS]
- folding stability dG unfold [1]: 4.07 ± 0.2 kcal/mol
- folding stability dG unfold [2]: 3.44 ± 0.3 kcal/mol
- folding stability dG unfold [3]: 2.91 ± 0.19 kcal/mol

Sequence: SAGGSAGGSAIKKTPNGKYLLKVTFTETYKDKKTGKTYKKTYTKTYVFDKKTNKWKSAEELSAGGSAGGSAG [r3_394_TrROS_Hall]
- folding stability dG unfold [1]: 3.12 ± 0.12 kcal/mol
- folding stability dG unfold [2]: 2.94 ± 0.33 kcal/mol
- folding stability dG unfold [3]: 2.41 ± 0.17 kcal/mol

Sequence: SAGGSAGGSAKEFVAKVITPDGKPFTIPFGGETEEEAIEKLKEAIKKAFPEYKGVKIELEEKSAGGSAGGSA [r18_434_TrMRF]
- folding stability dG unfold [1]: 0.626 ± 0.27 kcal/mol
- folding stability dG unfold [2]: 0.791 ± 0.2 kcal/mol
- folding stability dG unfold [3]: 0.873 ± 0.057 kcal/mol

Sequence: SAGGSAGGSAKEIEVRVEKDEETGKYRVTIRVDGKEIEIEVDVPKTLEEAERKAKELLKELSAGGSAGGSAG [r3_104_TrROS_Hall]
- folding stability dG unfold [1]: 2.77 ± 0.035 kcal/mol
- folding stability dG unfold [2]: 2.66 ± 0.066 kcal/mol
- folding stability dG unfold [3]: 2.53 ± 0.082 kcal/mol

Sequence: SAGGSAGGSAKENEKISIGPEITETGLDILEIKVDTNTKVVTIRFANKIYRIDKNGNISIVSSAGGSAGGSA [r18_445_TrMRF]
- folding stability dG unfold [1]: 2.51 ± 0.13 kcal/mol
- folding stability dG unfold [2]: 2.18 ± 0.17 kcal/mol
- folding stability dG unfold [3]: 1.73 ± 0.065 kcal/mol

Sequence: SAGGSAGGSAKEYIVRIKVRLKDGEEVEIEITVSEEELEELKKALESLPNIEEAEIEVFPLPSAGGSAGGSA [r18_157_TrROS_Hall]
- folding stability dG unfold [1]: 3.53 ± 0.043 kcal/mol
- folding stability dG unfold [2]: 3.63 ± 0.066 kcal/mol
- folding stability dG unfold [3]: 3.82 ± 0.11 kcal/mol

Sequence: SAGGSAGGSAKHRVDDIQPQRHKNPDGEKPVRVRFPDNGQEERIPADNLDDIDVSDGMEVEPSAGGSAGGSA [r18_288_TrROS]
- folding stability dG unfold [1]: -0.631 ± 0.044 kcal/mol
- folding stability dG unfold [2]: -0.855 ± 0.2 kcal/mol
- folding stability dG unfold [3]: -1.8 ± 0.45 kcal/mol

Sequence: SAGGSAGGSAKIFARAPPGQWYRITVKYKGGNGDKKEHTATIPPNNPPPDIEDVEIEPIPPGSAGGSAGGSA [r18_223_TrROS]
- folding stability dG unfold [1]: 3.15 ± 0.066 kcal/mol
- folding stability dG unfold [2]: 3.12 ± 0.25 kcal/mol
- folding stability dG unfold [3]: 3.55 ± 0.14 kcal/mol

Sequence: SAGGSAGGSAKIIVNEDGYLIKITNKNGKEITIEMSEDELKELLKKLGIKKAEIVPLPKEKSAGGSAGGSAG [r3_141_TrROS_Hall]
- folding stability dG unfold [1]: 2.34 ± 0.093 kcal/mol
- folding stability dG unfold [2]: 1.72 ± 0.2 kcal/mol
- folding stability dG unfold [3]: 0.382 ± 0.075 kcal/mol

Sequence: SAGGSAGGSAKIMIPVDTPEEVKDIAEEFASNGNKEVEPHEDGWVSIEFPNGVPIEIWLPKDSAGGSAGGSA [r18_126_TrROS]
- folding stability dG unfold [1]: 0.488 ± 0.062 kcal/mol
- folding stability dG unfold [2]: 0.0345 ± 0.25 kcal/mol
- folding stability dG unfold [3]: -0.558 ± 0.28 kcal/mol

Sequence: SAGGSAGGSAKKIKIKIKVYNPETKEVLELEIEVSEEEAEELAKKLAEELEKKGYKIEEVEISAGGSAGGSA [r18_3_TrROS_Hall]
- folding stability dG unfold [1]: 3.47 ± 0.084 kcal/mol
- folding stability dG unfold [2]: 3.85 ± 0.12 kcal/mol
- folding stability dG unfold [3]: 4.48 ± 0.35 kcal/mol

Sequence: SAGGSAGGSAKKITVEITIEVNGKKYKVKAEIELDEETKTLTIKVTFPDGTEFEFTFKLPEESAGGSAGGSA [r18_239_TrROS_Hall]
- folding stability dG unfold [1]: 5.72 ± 0.13 kcal/mol
- folding stability dG unfold [2]: 5.76 ± 0.41 kcal/mol
- folding stability dG unfold [3]: 3.86 ± 0.22 kcal/mol

Sequence: SAGGSAGGSAKKIVIKVKPGMTEEEILEEIAKKLGLKPEKIKKIEIERNKDGYLYVTIEIESAGGSAGGSAG [r3_26_TrROS_Hall]
- folding stability dG unfold [1]: 3.87 ± 0.065 kcal/mol
- folding stability dG unfold [2]: 3.82 ± 0.083 kcal/mol
- folding stability dG unfold [3]: 3.66 ± 0.16 kcal/mol
